The results in this text go back to patent US20240093158A1 (ARIZONA BOARD OF REGENTS ON BEHALF OF ARIZONA STATE …, published 2024).

For the experiment, the target named is T1, CD16 on human natural killer (NK) cells (human, UniProt P08637 17-254).
T1 construct: whole, on cells
Kind of experiment: flow cytometry on human NK cells, BiKE-containing supernatant, PE anti-V5 detection. A general note: Flow cytometry measures light scatter and fluorescence of single cells or particles in a stream.

T1 sequence (P08637 17-254): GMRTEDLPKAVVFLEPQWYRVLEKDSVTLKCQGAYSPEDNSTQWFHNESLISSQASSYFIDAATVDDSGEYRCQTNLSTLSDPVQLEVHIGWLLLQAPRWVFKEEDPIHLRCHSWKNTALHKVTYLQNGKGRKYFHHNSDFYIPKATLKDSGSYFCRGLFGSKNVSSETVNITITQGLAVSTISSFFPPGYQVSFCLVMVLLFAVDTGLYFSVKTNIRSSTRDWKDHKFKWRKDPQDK

B1: Bi-specific Natural Killer and Neutrophil engager (BiKE), CD138-CD16, secreted from MYXV-BiKE-infected cells, with C-terminal V5 tag (bispecific antibody)
chain: DIQMTQSTSSLSASLGDRVTISCSASQGINNYLNWYQQKPDGTVELLIYYTSTLQSGVPSRFSGSGSGTDYSLTISNLEPEDIGTYYCQQYSKLPRTFGGGTKLEIKGGGGSGGGGSGGGGSSQVQLQQSGSELMMPGASVKISCKATGYTFSNYWIEWVKQRPGHGLEWIGEILPGTGRTIYNEKFKGKATFTADISSNTVQMQLSSLTSEDSAVYYCARRDYYGNFYYAMDYWGQGTSVTVSSGGGGSGGGGSQVTLKESGPGILQPSQTLSLTCSFSGFSLRTSGMGVGWIRQPSGKGLEWLAHIWWDDDKRYNPALKSRLTISKDTSSNQVFLKIASVDTADTATYYCAQINPAWFAYWGQGTLVTVSAGGGGSGGGGSGGGGSDTVLTQSPASLAVSLGQRATISCKASQSVDFDGDSFMNWYQQKPGQPPKLLIYTTSNLESGIPARFSASGSGTDFTLNIHPVEEEDTATYYCQQSNEDPYTFGGGTKLEIKGKPIPNPLLGLDST
notes: Tested as secreted protein in supernatants of MYXV-BiKE-infected RK13 or Vero cells and detected through its V5 tag; Concentration was not determined; also called huBiKE; CD138-CD16 BiKE
B1: the binding result was “binds”.
